Laboratory results taken from PMC8115922 (Science Advances, 2021).

T1: SAMD1-WH(27-105) (Homo sapiens, UniProt Q6SPF0 27-105)
T1 sequence: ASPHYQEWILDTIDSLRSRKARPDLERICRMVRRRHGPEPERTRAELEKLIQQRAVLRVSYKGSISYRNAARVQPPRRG


Assays:
SAMD1-WH(27-105) = molecular target: T1, SAMD1-WH(27-105); assay: X-ray crystallography
SEC + native MS = molecular target: the molecule itself; assay: SEC + native MS

Binder | binding result (SAMD1-WH(27-105)) | stoichiometry N (SEC + native MS)
13-bp CpG DNA (dsDNA) DNA 1: ACCTGCGCACCAT DNA 2: ATGGTGCGCAGGT | binds | –
WT SAMD1-SAM (construct of the solution experiments not stated) (domain or fragment, human, UniProt Q6SPF0 462-530, looked up) WTVMDVVEYFTEAGFPEQATAFQEQEIDGKSLLLMQRTDVLTGLSIRLGPALKIYEHHIKVLQQGHFED | – | 5
